Values of other authors, collected in publication PMC9222382.

Molecular target: IL-10Rα (Homo sapiens) (UniProt Q13651)
Sequence of UniProt Q13651 (Q13651 22-235): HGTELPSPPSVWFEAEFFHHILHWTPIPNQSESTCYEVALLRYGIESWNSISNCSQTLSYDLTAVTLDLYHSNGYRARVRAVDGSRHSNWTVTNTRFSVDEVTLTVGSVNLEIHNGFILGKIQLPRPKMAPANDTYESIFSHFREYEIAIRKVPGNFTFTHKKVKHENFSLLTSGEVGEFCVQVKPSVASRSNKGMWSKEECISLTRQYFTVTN

Kd: 1 nM
Substance: IL-10 (from UniProt P22301)
